Results: the supplement of paper PMC12764529
± gives the half width of the 95% confidence interval.

Assays:
[1] = folding stability dG unfold from trypsin proteolysis; higher = more stable
Procedure, shortened: (§1)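 Unfolding free energy was derived, per protease or combined, against a sequence-predicted unfolded-state K50 and a shared folded-state K50, starting from K50 inferred by Bayesian fitting of sequencing counts. Digestion with trypsin and chymotrypsin was carried out on designed mini-proteins under 80 residues without cysteine in a PA-tagged cDNA display construct. Only designs with AlphaFold2 dimer inter-PAE above 15 were kept.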

[2] = folding stability dG unfold from chymotrypsin proteolysis; higher = more stable
Procedure, shortened: as §1

[3] = folding stability dG unfold (combined trypsin and chymotrypsin); higher = more stable
Procedure, shortened: as §1

Sequence | folding stability dG unfold [1] [kcal/mol] | folding stability dG unfold [2] [kcal/mol] | folding stability dG unfold [3] [kcal/mol]
SAGGSAGGSAKKVIKAKILEVKVLPDGTGLVKLEGEDGLEVVIPLSILENISPDAIVTIEASAGGSAGGSAG [r3_315_TrMRF] | 0.916 ± 0.055 | 1.79 ± 0.039 | 1.45 ± 0.066
SAGGSAGGSAKKVKIEEKDGELTITVEPGEKVLIVYPDGTVEEVEVKEGDTITLPPGAKVLPSAGGSAGGSA [r18_452_TrROS_Hall] | 0.513 ± 0.11 | 1.63 ± 0.12 | 1.33 ± 0.24
SAGGSAGGSAKLEYDDDYVEIEFKVPDGPIMIYIPDWGWMIWIWPGKEVTIRFPIPKPPDNSAGGSAGGSAG [r3_185_TrROS] | 2.41 ± 0.089 | 4.03 ± 0.24 | 3.43 ± 0.22
SAGGSAGGSAKLVKITFSNGEELVLPADKFSIEAIKSLPVPAKVEVFDVPKSDTNLEDLLKSAGGSAGGSAG [r3_69_TrMRF] | 0.72 ± 0.043 | 2.03 ± 0.022 | 1.66 ± 0.044
SAGGSAGGSAKMEIVLEVDTPEEAKEAAKKLAEELKKKGYKVKVEVKKLKNGKYYVKITVDSAGGSAGGSAG [r3_211_TrROS_Hall] | 3.33 ± 0.23 | 4.84 ± 0.26 | 4.66 ± 0.33
SAGGSAGGSAKPKVKIEVEERRVLTLDPETGELKEERVLVVRIEVEPGMSEEEAKKLLEELASAGGSAGGSA [r18_438_TrROS_Hall] | 1.7 ± 0.079 | 2.66 ± 0.12 | 2.27 ± 0.16
SAGGSAGGSAKPLTVEEIIKKLNLPPNVEIVDVKVDYGKTENKPIIVLVLKTKDKPYLPVFASAGGSAGGSA [r18_354_TrMRF] | 1.25 ± 0.097 | 1.91 ± 0.065 | 1.61 ± 0.17
SAGGSAGGSAKPNWVIIEMTIQIPEGDPEEIKEIMEPFGWEITGVDNNYIKVSILMPPGAKISAGGSAGGSA [r18_168_TrROS] | 1.26 ± 0.14 | 1.14 ± 0.043 | 1.26 ± 0.25
SAGGSAGGSAKPQKVELELFPNGELIIRLPETGARIRLKVEVFKDASGNPFFKLEIVDIDPSAGGSAGGSAG [r3_76_TrMRF] | 2.48 ± 0.14 | 2.66 ± 0.058 | 2.6 ± 0.16
SAGGSAGGSAKPVLEVEITVEVNGKLYKVRARVELEETPDGLVLKVEVELENGEKFEFTLKLSAGGSAGGSA [r18_54_TrROS_Hall] | 4.42 ± 0.26 | 5.13 ± 0.21 | 5.11 ± 0.28
SAGGSAGGSAKPVYKIRIVVKKDGKEFVKEIEVPEDEEEAEALAKELAKKPEVEKVEVEKVSAGGSAGGSAG [r3_310_TrROS_Hall] | 0.739 ± 0.075 | 1.84 ± 0.058 | 1.62 ± 0.18
SAGGSAGGSAKVTYTENSVTIHAKVPEKPLKIEIPNTGKVVTIDLDKEVTVTFPVPKPPDESAGGSAGGSAG [r3_185_TrMRF] | -0.786 ± 0.07 | -0.454 ± 0.1 | -0.624 ± 0.17
SAGGSAGGSAKVYVNPDNNKVAVVLPPPGDSYLVLLFDPETGEVRLIEAPPEEVEELLKKGSAGGSAGGSAG [r3_162_TrMRF] | 0.618 ± 0.077 | 1.25 ± 0.097 | 0.845 ± 0.14
SAGGSAGGSAKWIYIMLPFPEGQKVEIEYPNGRKHSYEQTPDGMLMIRVRRPNAPIKIKIKSAGGSAGGSAG [r3_334_TrROS] | 1.9 ± 0.13 | 2.72 ± 0.23 | 2.4 ± 0.25
SAGGSAGGSALEIPFPIKDVKWERNPDGSRTRTFYLKNGWRASLIFNPKNGQMQIDIEPLDSAGGSAGGSAG [r3_438_TrROS] | 1.8 ± 0.073 | 1.57 ± 0.12 | 1.81 ± 0.17
SAGGSAGGSALEVPSNYLVEVRFPNETRLIPVEDLDAFFEAYPDVPWTDIRVLDPKTGKPISAGGSAGGSAG [r3_134_TrMRF] | 2.47 ± 0.04 | 1.923 ± 0.0098 | 2.19 ± 0.032
SAGGSAGGSALKNAPGPDPALLKPRPVLVIPIPKDIPLEEAEALAEIFRKLYPDVPVVLDVEGGSAGGSAGG [r6_299_TrMRF] | 0.826 ± 0.046 | 1.07 ± 0.072 | 0.971 ± 0.05
SAGGSAGGSALPTSPTYAVVKVPDKYYIVKTKVGDIIFIPDENGIPVPVKVEPFYPIAPEALSAGGSAGGSA [r18_244_TrMRF] | -0.297 ± 0.16 | -0.515 ± 0.4 | -0.258 ± 0.18

Sequence | folding stability dG unfold [1] [kcal/mol] | folding stability dG unfold [2] [kcal/mol] | folding stability dG unfold [3] [kcal/mol]
SAGGSAGGSAMDAEEIADMIKEILRKQFPNVKITEITVERRPPGNYYVEARVPDGNQRTIPISAGGSAGGSA [r18_423_TrROS] | -0.483 ± 0.15 | 0.286 ± 0.059 | 0.115 ± 0.061
SAGGSAGGSAMEINEIVKETAKKGKNLTITVKLPDGSTVTITVTPDEDVPEDLEVLEVTVKSAGGSAGGSAG [r3_421_JUSTAS] | 0.344 ± 0.05 | 1.78 ± 0.038 | 1.4 ± 0.056
SAGGSAGGSAMEITITVPKENEEEVLEAAKKALEELGIEEVKVEKLEDGTYKVTARVKPGLSAGGSAGGSAG [r3_335_TrROS_Hall] | 0.325 ± 0.12 | 0.219 ± 0.14 | 0.361 ± 0.2
SAGGSAGGSAMIEISEEELEKLLAETPEEEAKEVKIERIPDIGLINVTIPSGKVIKVKIKESAGGSAGGSAG [r3_291_JUSTAS] | -0.241 ± 0.11 | 1.43 ± 0.077 | 0.911 ± 0.086
SAGGSAGGSAMIETTVSFDPSTGTVTTTTTYTDPNGGYTKSSTTVTPVPTPAPPPPAAPNRVSAGGSAGGSA [r18_361_JUSTAS] | 0.409 ± 0.029 | 0.582 ± 0.067 | 0.551 ± 0.094
SAGGSAGGSAMITTPKGERFEVPLRLTPDGRLEVLVVTDRPDDPEVRELAERLARELAERLSAGGSAGGSAG [r3_163_TrMRF] | 0.506 ± 0.11 | 0.394 ± 0.17 | 0.484 ± 0.14
SAGGSAGGSAMIVVPVDLVRERLDELVFRGEDGVEYRAEVRVFEVGDRPVAVIDLRPLDEDGSAGGSAGGSA [r18_447_TrMRF] | 0.467 ± 0.025 | 0.994 ± 0.047 | 0.823 ± 0.048
SAGGSAGGSAMKFPKGAKIEIVVTEDKVYVRIKTPGGKEIEVEMTLEELKKLGFEVEIVEEESAGGSAGGSA [r18_125_TrROS_Hall] | 1.75 ± 0.086 | 2.27 ± 0.061 | 2.19 ± 0.15
SAGGSAGGSAMKIELTVPPGEEAELEARAKALAEAEGVEVVSVSKSPEGTYTMTVLNTVPPESAGGSAGGSA [r18_351_JUSTAS] | 0.532 ± 0.058 | -0.164 ± 0.19 | 0.317 ± 0.098
SAGGSAGGSAMKIVEWNEETGELTIELPDGTKITLKVENGEITEVKVEPLPPVPPDLPELKSAGGSAGGSAG [r3_406_TrROS_Hall] | 0.537 ± 0.15 | 2.45 ± 0.16 | 2.24 ± 0.24
SAGGSAGGSAMKIVKIEVVENEDGEKYVKIEIELENGEKIEITLPLEELENMSLEELLKLLKSAGGSAGGSA [r18_129_TrROS_Hall] | 2.94 ± 0.18 | 3.94 ± 0.17 | 3.68 ± 0.12
SAGGSAGGSAMKIVKITTTQLPNGTTKVTVTFSDGSTKTVTIPPNQPGKSAEEVAKKVLLESAGGSAGGSAG [r3_368_JUSTAS] | 1.8 ± 0.055 | 3.37 ± 0.054 | 2.96 ± 0.087
SAGGSAGGSAMKPGEVIEIEITDKETGKKIKAEIVLKDGKLYIKIYNENGELIAEIEIEIKDSAGGSAGGSA [r18_264_TrROS_Hall] | 2.83 ± 0.2 | 3.4 ± 0.12 | 3.42 ± 0.14
SAGGSAGGSAMKTYTLEQIEELLKSLPEEEIEEVKIEEKEGKKVIYVKTKDGREIEIVVEPSAGGSAGGSAG [r3_291_TrROS_Hall] | 2.86 ± 0.2 | 3.19 ± 0.052 | 2.98 ± 0.13
SAGGSAGGSAMKVALVERPDGSPFLLVFDPDRPGVALLRPLDTDEVEVLPSELLKNLKITASAGGSAGGSAG [r3_451_TrMRF] | -0.509 ± 0.17 | 0.68 ± 0.13 | 0.344 ± 0.1
SAGGSAGGSAMKVGEEVEVTVRIKVDGKEYEVKAKATLDEDGNVTLEVEIKAKEGKVEIEIESAGGSAGGSA [r18_428_TrROS_Hall] | 3.42 ± 0.26 | 2.15 ± 0.14 | 2.63 ± 0.13
SAGGSAGGSAMKVITLPENADINKVIEAVEAGSPILVKIVDPKSSKTTDLPLPSKEAVEKLSAGGSAGGSAG [r3_362_JUSTAS] | -0.468 ± 0.17 | -0.394 ± 0.18 | -0.33 ± 0.15
SAGGSAGGSAMKVLVTVTLTSPDGTKTTLTEEADPAELKGVLEAALPWTVETVTVYPAEELLSAGGSAGGSA [r18_107_JUSTAS] | 1.35 ± 0.051 | 0.509 ± 0.12 | 1.04 ± 0.089
